Test results: PMC4052767

Molecular target: Hat1p/Hat2p/H4_(1-48) complex (yeast (Saccharomyces cerevisiae) | yeast) (UniProt Q12341)
Assay: ITC

Sequence of Hat1p/Hat2p/H4_(1-48) complex (yeast (Saccharomyces cerevisiae) | yeast) (Q12341 1-320, chain 1 of 3): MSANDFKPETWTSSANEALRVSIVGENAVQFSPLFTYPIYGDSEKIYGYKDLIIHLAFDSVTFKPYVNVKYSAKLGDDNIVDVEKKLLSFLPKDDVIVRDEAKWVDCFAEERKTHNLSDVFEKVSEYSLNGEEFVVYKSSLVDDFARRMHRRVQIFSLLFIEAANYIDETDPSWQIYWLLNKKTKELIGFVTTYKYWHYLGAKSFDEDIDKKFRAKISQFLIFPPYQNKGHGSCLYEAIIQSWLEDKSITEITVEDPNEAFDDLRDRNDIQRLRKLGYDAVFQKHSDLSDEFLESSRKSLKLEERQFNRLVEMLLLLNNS
Sequence of Hat1p/Hat2p/H4_(1-48) complex (yeast (Saccharomyces cerevisiae) | yeast) (P39984 whole entry, chain 2 of 3, further chain): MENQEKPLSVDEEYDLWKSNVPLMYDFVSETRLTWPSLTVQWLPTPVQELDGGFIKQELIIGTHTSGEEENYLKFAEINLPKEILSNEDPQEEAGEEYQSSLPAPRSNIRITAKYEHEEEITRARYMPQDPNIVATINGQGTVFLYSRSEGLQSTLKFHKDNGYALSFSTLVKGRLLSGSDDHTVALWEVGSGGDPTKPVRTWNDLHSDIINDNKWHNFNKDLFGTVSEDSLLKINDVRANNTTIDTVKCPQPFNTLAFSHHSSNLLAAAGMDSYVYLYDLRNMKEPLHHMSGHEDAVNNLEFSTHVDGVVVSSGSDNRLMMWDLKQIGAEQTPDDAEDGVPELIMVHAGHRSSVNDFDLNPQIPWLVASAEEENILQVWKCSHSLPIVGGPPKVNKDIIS
Sequence of Hat1p/Hat2p/H4_(1-48) complex (yeast (Saccharomyces cerevisiae) | yeast) (P02309 2-49, chain 3 of 3, further chain): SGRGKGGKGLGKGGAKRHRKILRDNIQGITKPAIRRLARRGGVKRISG

Kd [µM] | Substance
4.78 | H3K4me2 peptide
11.6 | H3K4me3 peptide
2.48 | H3K4me1 peptide
0.34 | H3 peptide (residues 1-15), unmodified (from UniProt P61830 2-16)
